B1: Sbi-III-IV(K173A) (domain or fragment)
chain: not shown
notes: As used in SPR, ELISA and SAXS; also called K173A Sbi-III-IV; Sbi-III-IV mutant K173A; source: recombinant, from mutated pQE30:sbi-III-IV plasmid (QuikChange), purified
B2: factor H-related protein 1 (FHR-1), recombinant (natural protein, human, UniProt Q03591 19-330, looked up)
chain: EATFCDFPKINHGILYDEEKYKPFSQVPTGEVFYYSCEYNFVSPSKSFWTRITCTEEGWSPTPKCLRLCFFPFVENGHSESSGQTHLEGDTVQIICNTGYRLQNNENNISCVERGWSTPPKCRSTDTSCVNPPTVQNAHILSRQMSKYPSGERVRYECRSPYEMFGDEEVMCLNGNWTEPPQCKDSTGKCGPPPPIDNGDITSFPLSVYAPASSVEYQCQNLYQLEGNKRITCRNGQWSEPPKCLHPCVISREIMENYNIALRWTAKQKLYLRTGESAEFVCKRGYRLSSRSHTLRTTCWDGKLEYPTCAKR
notes: Complement factor H-related protein 1, human; secreted from CHO cells, so probably the mature protein

Experiments:
[1] = target: B2; experiment: SPR; Biacore S200, CM5 chip, 25°C, HBST (10 mM HEPES, 150 mM NaCl, 0.005% Tween 20, pH 7.4); surfaces: 800 RU opsonized C3b, iC3b made from it, or 600 RU amine-coupled C3d; series of Sbi-III-IV WT or K173A (4,050 to 1.8 nM) flowed alone or co-injected with FH, FHR-1, FHR-2, FHR-5 or FH19-20 at 100, 12.5, 20, 25 or 20 nM; conditions: both partners purified
Factor H (FH) = target: T1, Factor H (FH) (human, UniProt P08603 19-1231); experiment: as above; conditions: both partners purified
T1 construct: Complement factor H, human, plasma purified; also called plasma purified FH; source: bought: Complement Technologies (plasma purified)

[2] = target: T2, FH_(19−20) (C-terminal part of factor H, SCR 19-20), recombinant (human, UniProt P08603 1103-1231); experiment: as above; conditions: both partners purified
T2 construct: Complement factor H, human, SCR domains 19-20; also called fragment FH_(19−20); source: recombinant
T2 sequence: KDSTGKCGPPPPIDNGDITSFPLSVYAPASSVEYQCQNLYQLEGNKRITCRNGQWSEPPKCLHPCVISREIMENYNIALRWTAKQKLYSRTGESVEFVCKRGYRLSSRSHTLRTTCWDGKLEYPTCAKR

[3] = target: the molecule itself; experiment: SAXS; Sbi-III-IV, C3d and FHR-1 combined 1:1:1 at 45 uM, in PBS; EOM ensemble modelling with P2 symmetry

| Binder | binding result [1] | binding result (Factor H (FH)) | binding result [2] | stoichiometry N [3] |
| --- | --- | --- | --- | --- |
| B1 | binds | binds | binds | – |
| B2 | – | – | – | 2 |

Source: publication PMC6336717 (Frontiers in Immunology, 2018)
